Data reported in article PMC6377406.

Biological target: ΔN-PINK1-GFP (UniProt Q9BXM7)
Assay: co-IP; GFP IP (μMACS Epitope Tag Protein Isolation kit) of lysates of transfected HEK293 cells; immunoblot

UniProt Q9BXM7, sequence (Q9BXM7 78-581, stated change not applied): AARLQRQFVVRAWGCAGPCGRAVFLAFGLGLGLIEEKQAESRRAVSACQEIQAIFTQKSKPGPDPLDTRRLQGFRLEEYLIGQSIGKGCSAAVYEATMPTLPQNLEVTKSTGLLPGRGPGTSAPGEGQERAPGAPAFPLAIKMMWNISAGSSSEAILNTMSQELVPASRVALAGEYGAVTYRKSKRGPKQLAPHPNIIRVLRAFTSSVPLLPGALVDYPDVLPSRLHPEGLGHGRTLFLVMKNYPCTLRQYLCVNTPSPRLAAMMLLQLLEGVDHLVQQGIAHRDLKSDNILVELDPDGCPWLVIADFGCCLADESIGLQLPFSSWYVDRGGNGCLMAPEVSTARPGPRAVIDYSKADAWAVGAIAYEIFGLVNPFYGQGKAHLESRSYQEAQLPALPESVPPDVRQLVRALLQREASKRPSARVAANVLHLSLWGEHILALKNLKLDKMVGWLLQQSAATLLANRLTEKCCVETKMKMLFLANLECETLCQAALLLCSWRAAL

fold of VCP pulled down against OMM-PINK1-GFP: 4 fold
Substance: valosin-containing protein (VCP), endogenous in HEK293 cells (from UniProt P55072 1-806) (natural protein)
